According to paper PMC9605868:

Target: AP-1σ1 (cells' own, or HA-AP1S1) (UniProt P61966)
Experiment: anti-Flag IP, western blot for AP-1
Conditions: reference: wild type; sites S366

Substance: STING (from UniProt Q86WV6) S366A
- binding against the reference: weaker
